# From US20230047413A1 (Janssen / Centocor, published 2023)
# Positions count from the first letter of the chain named. Numbers in names are those of the source. Where “and” joins values, the source holds several entries; their conditions need not be identical. Equal entries are not always repeated.
# B1: B296 (antibody, human IgG1, kappa, V domains shown)
# VH: QVQLVESGGGVVQPGRSLRLSCAASGFTFSSYAMSWVRQAPGKGLEWVASISKGGNTYYADSVKGRFTISRDNSKNTLYLQMNSLRAEDTAVYYCARGWGDYGWFAYWGQVTLVTVSS
# VL: DIQMTQSPSSLSASVGDRVTITCKASQDINRYLNWFQQKPGKAPKSLIYRANRLLDGVPSRFSGSGSGTDFTLTISSLQPEDFATYYCLQYDEFPLTFGQGTKLEIKR
# notes: Humanized PT3, human IgG1/kappa; also called VH92/VL77; HFA-PT3
# B2: B352 (IgG4 mAb) (antibody, V domains shown)
# VH: B1 VH
# VL: DIQMTQSPSSLSASVGDRVTITCKASQDINRYLNWFQQKPGKAPKSLIYRANRLLDGVPSRFSGSGSGTDFTLTISSLQPEDFATYYCLQYDEFPLTFGQGTKLEIK
# notes: IgG4 variant of B296 with the same variable regions; also called B296 as hIgG4
# B3: B252 (antibody, human IgG1, V domains shown)
# VH: B1 VH with V11L, Q13K, R16G, V37I, A49S, S74A, T77S
# VL: DIVMTQTPLSSPVTLGQPASISCKASQDINRYLNWLQQRPGQPPRLLIYRANRLLDGVPDRFSGSGAGTDFTLKISRVEAEDVGVYYCLQYDEFPLTFGQGTKLEIK
# notes: Humanized (HFA) PT3 variant, human IgG1/kappa; also called VH93/VL80
# B4: B282 (antibody, human IgG1, V domains shown)
# VH: B1 VH with V11L, Q13K, R16G, V37I, A49S, S74A, T77S
# VL: B2 VL
# notes: Humanized (HFA) PT3 variant, human IgG1/kappa; also called VH93/VL77
# B5: B809 (antibody, human IgG1, kappa, V domains shown)
# VH: B1 VH with S30T, S52T, D101I
# VL: B1 VL
# notes: also called PT1B809
# B6: B333 (antibody, human IgG1, kappa, V domains shown)
# VH: B1 VH
# VL: B1 VL with Y32W
# notes: also called PT1B333
# B7: B332 (Fab of B809) (Fab, V domains shown)
# VH: B1 VH with S30T, S52T, D101I
# VL: B2 VL
# B8: B331 (Fab of B333) (Fab, V domains shown)
# VH: B1 VH
# VL: B2 VL with Y32W
# B9: B297 (antibody, human IgG1, V domains shown)
# VH: B1 VH with V11L, Q13K, R16G, V37I, A49S, S74A, T77S
# VL: B2 VL with D56S
# notes: Humanized (HFA) PT3 variant, human IgG1/kappa; it is built from VL77 with D56S; also called VH93/VL78
# B10: B234 (antibody, human IgG1, V domains shown)
# VH: EVKLVESGGDLVKPGGSLKLSCAASGFTFSSYAMSWVRQNPEKRLEWVASISKGGNTYYPNSVKGRFTISRDNARNILYLQMSSLRSEDTALYYCARGWGDYGWFAYWGQVTLVTVSA
# VL: DIKMTQSPSSMYASLGERVTITCKASQDINRYLNWFQQKPGKSPKTLIYRANRLLDGVPSRFSGSGSGQDYSLTISSLDYEDMGIYYCLQYDEFPLTFGDGTKLELK
# notes: Mouse PT3 variable regions (VH10/VL7) with human IgG1/kappa constant region; also called mouse PT3, hIgG1
# How the values were obtained:
# [1] = target: T1, tau phospho-peptide of the direct ELISA of Example 11; assay: direct ELISA, peptide coated
# T1 construct: also called pT217 peptide; pT212/pT217 peptide
# Procedure: (§1) Binding to tau phospho-peptide was analysed by ELISA where peptide (10 ng/mL) was directly coated to the plate overnight. […] After incubation with antibodies, plates were washed and 50 μL per well of HRPO labelled anti-Fab antibody (Jackson Immunoresearch laboratories) (diluted 1:10000 in blocking buffer). After another washing step detection was performed with “One step” TMB (Thermo Scientific) according to the manufacturers' instructions. Plates were analysed in EnVision® 2102 Multilabel Reader (Perkin Elmer, Waltham, Mass., USA). Binding curves were generated using GraphPad Prism7.0 software.
# Peptide-2 [2] = target: T2, Peptide-2 (human, phosphothreonine 212, phosphothreonine 217 (tau 2N4R numbering); short chain biotin (SCBiot) and dPEG4 at the N-terminus; amide at the C-terminus); assay: SPR ProteOn, mAb captured, peptide as analyte
# T2 construct: also called pT212/pT217-tau peptide (Peptide-2)
# Procedure: (§2) A subset of HFA-PT3 monoclonal antibody variants, selected based on biophysical characterization and ELISA binding to PHF, were analyzed by Surface Plasmon Resonance (SPR) with a ProteOn XPR36 for binding to the following phosphopeptides: pT212/pT217-tau peptide (Peptide-2, SEQ ID NO: 48) and pT212-tau peptide (Peptide-8, SEQ ID NO: 54). All experiments were performed at 25° C. using PBST, pH 7.4, (Bio-Rad Cat#176-2720) as both running buffer and sample dilution buffer.
# (§3) Monoclonal antibody/Peptide binding. […] Anti-human IgG was amine-coupled to the chip surface using EDC/NHS, then washed with ethanolamine. Antibodies were diluted to 2 μg/mL in PBST and injected on the surface for 5 min at 30 μL/min to achieve a maximum density of 900-1000 RU. Peptides were injected as analytes at 60 μL/min for 3 min, followed by 5 min dissociation. Peptide-2 was diluted in PBST to generate a three-fold concentration series (0-30 nM) and measured in duplicate. Single measurements of monoclonal antibody binding to Peptide-8 were recorded over the concentration range 0-100 nM.
# (§4) Data were double referenced by subtraction of the interspot response, and the curves generated by the buffer only injection. The chip surface was regenerated with 0.85% phosphoric acid, followed by PBST injection before the next antibody titration injection. Data processing and analysis were performed using instrument software. The data were fit using a simple Langmuir 1:1 binding model.
# Peptide-2 [3] = target: T2, Peptide-2; assay: SPR ProteOn, mAb captured, peptide as analyte; range of n=2
# Procedure: as §2, §3, §4
# [4] = target: T3, PHF-tau (paired helical filament tau isolated from Alzheimer's disease brain) (human, UniProt P10636-8 2-441, limits assumed, hyper-phosphorylated, aggregated; sites not listed for the preparation); assay: SPR ProteOn, PHF-tau capture-coupled via HT7, bivalent model
# T3 construct: also called enriched PHF-tau; ePHF-tau
# Procedure: A subset of HFA-PT3 monoclonal antibodies was tested for binding to PHF-tau isolated from Alzheimer's disease brain. All interactions were studied at 25° C. using PBS pH 7.4, supplemented with 3 mM EDTA, and 0.005% Tween 20 as running or system buffer. HT7 (Pierce, catalog #MN1000), a mouse anti-tau antibody, was used as a positive control.
# The interaction of anti-tau monoclonal antibodies with PHF-tau was analyzed by ProteOn using a biosensor surface prepared by capture-coupling PHF-tau using HT7 as the capture reagent. PHF-tau was prepared by 2-times centrifugation at 5000×g at 5° C. for 10 min; the supernatant from the second centrifugation was then diluted 1/40 in running buffer. To prepare the chip, HT7 was covalently immobilized to the surface of a GLC (ProteOn) sensor chip using the manufacturer's instructions for amine-coupling chemistry (˜5000 response units (RU)). The coupling buffer was 10 mM sodium acetate, pH 4.5. After HT7 immobilization, PHF-tau was injected and captured (˜300 RU) by HT7. After capture, PHF-tau was covalently immobilized to the sensor chip by activation of the chip using the manufacturer's instructions for amine-coupling chemistry. Remaining reactive sites were blocked by the injection of ethanolamine. After preparation and stabilization of the PHF-tau-modified surface and reference surface (containing no antigen), the anti-tau antibodies were diluted in the running buffer and injected in solution (0.12-75 nM in 5-fold dilutions). The association was monitored for 3 minutes (120 μL injected at 40 μL/min). The dissociation was monitored for 15 minutes. Regeneration of the sensor surface was performed using 10 mM Gly pH 2.0. The data for monoclonal antibodies were fit using a bivalent binding model where the apparent affinity (KD) was reported as the ratio of koff/kₒₙ. A Langmuir 1:1 binding model was used for kinetics analysis of Fabs.
# [5] = target: T3, PHF-tau (paired helical filament tau …); assay: as above; remark: listed apart in the source
# Procedure: (§5) Affinity matured monoclonal antibodies were tested for binding to PHF-tau isolated from Alzheimer's disease brain.
# (§6) A GLC sensor chip was covalently immobilized with a mouse anti-tau antibody, HT7 (ThermoFisher, catalog# MN1000) using the vendor recommended protocol for amine-coupling chemistry (˜5000 response units, RU). The coupling buffer was 10 mM, pH 4.5 sodium acetate. PHF-tau was prepared by 2-times centrifugation at 5000×g in 5° C. for 10 min. […] After capture-coupling, the surface was activated and deactivated to generate a homogenous PHF-tau surface for antibody binding studies. The anti-tau antibodies and their Fabs (prepared in running buffer, 0.024-75 nM at 5-fold dilutions) were injected at 50 μL/min over the PHF-tau surface to measure binding. The association and dissociation profiles were monitored for 4 minutes and 2 hours, respectively. After dissociation, the sensor chip was regenerated using multiple injections of 10 mM Glycine pH 2.0 and the running buffer. A reference surface (without any PHF-tau) was used to monitor non-specific binding of the injected mAbs or Fabs. HT7 antibody was used as a positive control. The binding sensorgrams for mAbs were fit using a bivalent binding model where the apparent affinity or avidity-driven binding (KD) was reported as the ratio of off-rate and on-rate (koff/kₒₙ). A 1:1 Langmuir binding model was used for kinetics analysis of Fabs.
# Peptide-8 = target: T4, Peptide-8 (human, phosphothreonine 212 (tau 2N4R numbering); SCBiot and dPEG4 at the N-terminus; amide at the C-terminus); assay: SPR ProteOn, mAb captured by anti-human Fc, peptide as analyte
# T4 construct: also called pT212-tau peptide (Peptide-8)
# Procedure: as §2, §3, §4
# Peptide-2 [6] = target: T2, Peptide-2; assay: SPR ProteOn, mAb captured, peptide as analyte; range of n=2; upper end of n=2 range
# Procedure: as §2, §3, §4
# [7] = target: T1, tau phospho-peptide of the direct ELISA …; assay: direct ELISA on plate-coated tau phospho-peptide (10 ng/mL), detection with HRPO-labelled anti-Fab antibody
# Procedure: as §1
# [8] = target: T3, PHF-tau (paired helical filament tau …); assay: SPR ProteOn, PHF-tau on chip
# [9] = target: T3, PHF-tau (paired helical filament tau …); assay: SPR ProteOn, PHF-tau capture-coupled via HT7, 1:1 model
# Procedure: as §5, §6
# T3 sequence (P10636 other isoform, or with tags, fused parts or gaps limits assumed): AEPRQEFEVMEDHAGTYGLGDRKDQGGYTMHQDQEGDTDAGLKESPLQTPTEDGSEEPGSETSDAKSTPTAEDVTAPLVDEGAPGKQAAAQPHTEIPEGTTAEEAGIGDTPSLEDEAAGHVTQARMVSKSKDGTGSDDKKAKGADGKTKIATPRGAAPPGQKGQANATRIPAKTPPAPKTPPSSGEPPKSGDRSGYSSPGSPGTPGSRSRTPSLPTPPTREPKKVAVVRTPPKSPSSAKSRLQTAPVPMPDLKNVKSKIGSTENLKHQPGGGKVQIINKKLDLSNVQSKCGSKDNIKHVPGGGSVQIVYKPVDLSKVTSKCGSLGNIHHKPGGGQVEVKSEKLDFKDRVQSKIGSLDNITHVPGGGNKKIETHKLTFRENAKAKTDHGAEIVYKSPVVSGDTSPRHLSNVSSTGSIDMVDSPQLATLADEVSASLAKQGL
# T4 sequence (peptide, as listed by the source): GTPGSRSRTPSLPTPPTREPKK
Binder,EC50 [1],Kd (Peptide-2 [2]),koff (Peptide-2 [2]),kon (Peptide-2 [2]),Kd (Peptide-2 [3]),koff (Peptide-2 [3]),kon (Peptide-2 [3]),Kd [4],koff [4],kon [4],Kd [5],koff [5],kon [5],Kd (Peptide-8),koff (Peptide-8),kon (Peptide-8),koff (Peptide-2 [6]),kon (Peptide-2 [6]),EC50 (read off the curve) [7],further results
B1,0.433 nM,0.19 nM,0.000826 s⁻¹,5e+06 M⁻¹ s⁻¹,0.125 to 0.255 nM,0.000788 s⁻¹,3.1e+06 M⁻¹ s⁻¹,0.027 nM,2.93e-05 s⁻¹,1.07e+06 M⁻¹ s⁻¹,0.0062 nM,1.17e-05 s⁻¹,1.89e+06 M⁻¹ s⁻¹,26.8 nM,0.023 s⁻¹,856000 M⁻¹ s⁻¹,0.000863 s⁻¹,6.9e+06 M⁻¹ s⁻¹,~0.3 nM,
B2,,,,,,,,0.043 nM,1.11e-05 s⁻¹,255000 M⁻¹ s⁻¹,,,,,,,,,,fold difference in affinity against B296 [8]: ≤ 2 fold
B3,,0.172 nM,0.000901 s⁻¹,5.75e+06 M⁻¹ s⁻¹,0.126 to 0.217 nM,0.000856 s⁻¹,3.95e+06 M⁻¹ s⁻¹,0.032 nM,4.28e-05 s⁻¹,1.32e+06 M⁻¹ s⁻¹,,,,32.6 nM,0.0242 s⁻¹,742000 M⁻¹ s⁻¹,0.000946 s⁻¹,7.54e+06 M⁻¹ s⁻¹,,
B4,,0.445 nM,0.00132 s⁻¹,3.12e+06 M⁻¹ s⁻¹,0.36 to 0.529 nM,0.00124 s⁻¹,2.34e+06 M⁻¹ s⁻¹,0.061 nM,4.08e-05 s⁻¹,665000 M⁻¹ s⁻¹,,,,86.5 nM,0.0382 s⁻¹,442000 M⁻¹ s⁻¹,0.0014 s⁻¹,3.89e+06 M⁻¹ s⁻¹,,
B5,0.0917 nM,,,,,,,,,,0.002 nM,1.27e-05 s⁻¹,6.45e+06 M⁻¹ s⁻¹,,,,,,~0.06 nM,fold improvement in on-rate compared to the parent antibody (B296) [8]: 3 fold
B6,0.164 nM,,,,,,,,,,0.0025 nM,6.8e-06 s⁻¹,2.68e+06 M⁻¹ s⁻¹,,,,,,~0.09 nM,
B7,,,,,,,,,,,,,,,,,,,,Kd [9]: 0.0258 nM; koff [9]: 0.00012 s⁻¹; kon [9]: 4.64e+06 M⁻¹ s⁻¹
B8,,,,,,,,,,,,,,,,,,,,Kd [9]: 0.031 nM; koff [9]: 5.31e-05 s⁻¹; kon [9]: 1.72e+06 M⁻¹ s⁻¹
B9,,,,,,,,0.042 nM,6.03e-05 s⁻¹,1.44e+06 M⁻¹ s⁻¹,,,,,,,,,,
B10,,0.0292 nM,0.000325 s⁻¹,9.35e+06 M⁻¹ s⁻¹,0.0278 to 0.0306 nM,0.000242 s⁻¹ and 0.000408 s⁻¹,8.7e+06 M⁻¹ s⁻¹ and 1e+07 M⁻¹ s⁻¹,,,,,,,3.48 nM,0.00802 s⁻¹,2.31e+06 M⁻¹ s⁻¹,,,,
